The target in experiment [1] is T1, Recombinant human ActRIIB-Fc (human, UniProt Q13705 19-137).
T1 chain: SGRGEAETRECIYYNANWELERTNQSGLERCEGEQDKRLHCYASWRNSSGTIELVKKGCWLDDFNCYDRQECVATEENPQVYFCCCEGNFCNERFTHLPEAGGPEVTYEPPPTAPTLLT
Kind of experiment: SPR. In general terms: SPR reads the build-up and loss of mass on a sensor chip optically.

Experiment [2] concerns the target Recombinant human ActRIIA-Fc (human, UniProt P27037 20-135). In words: SPR.

Consider one molecule from publication PMC11088876 (2024).

Chain of Recombinant human ActRIIA-Fc (P27037 20-135): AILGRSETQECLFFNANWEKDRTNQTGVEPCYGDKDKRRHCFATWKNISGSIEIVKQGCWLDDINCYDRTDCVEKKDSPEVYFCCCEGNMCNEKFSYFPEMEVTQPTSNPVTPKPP

B1: Recombinant human ActE (bacterially derived, provided by R&D Systems) (ligand)
chain: TPTCEPATPLCCRRDHYVDFQELGWRDWILQPEGYQLNYCSGQCPPHLAGSPGIAASFHSAVFSLLKANNPWPASTSCCVPTARRPLSLLYLDHNGNVVKTDVPDMVVEACGCS
For the molecule B1, the Kd – broadly, the constant that tells how readily two partners part at equilibrium – in experiment [1] is 20 nM; in experiment [2], 5 nM.
